Measurements published in the supplement of paper PMC12042874.
± gives the uncertainty stated by the source.

Test: amyloid nucleation score (Sup35N fusion, yeast selection) (log enrichment); library NNK1; higher = more nucleation; inactive = no reads after selection
Procedure, shortened: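 The nucleation score equals the log enrichment of output over input reads from DiMSum, centred on the mode score of non-aggregating sequences. It was computed only for sequences with 100 or more input reads. The reads came from Illumina sequencing of plasmid inserts from psi-negative yeast expressing Sup35N fused to peptides of 20 random codons, induced with 100 μM copper sulfate for 24 hours and grown 7 days at 30°C without adenine and uracil.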

| Substance | amyloid nucleation score |
| --- | --- |
| QWLAVVVIKVGLTWQYRFGG | 0.198 ± 0.91 |
| EHSPRRGAL | 0.063 ± 0.66 |
| ILSSGGEKDFNSLYT | -0.105 ± 0.47 |
| HYRRVTVMCPLRVFVYAPKT | 5.61 ± 0.094 |
| HSCAFNESHVFMHILCVISQ | -0.319 ± 0.44 |
| MTSVADECSLYSWAYSWLMS | 1.84 ± 0.57 |
| STRMVYR | -0.261 ± 0.95 |
| ELSSLGTCNCFHIRVSWGYM | 0.99 ± 0.37 |
| LYTVTTKR | -0.119 ± 0.31 |
| SESYEFVVHLHMESLRKLN | -0.245 ± 0.71 |
| KFNDDRNGIATLQRHHIAGF | -0.969 ± 0.71 |
| LMLPMESAPKRLGEGVGPSR | 0.233 ± 0.47 |
| SWFHGLEGVLSHATMSLGFA | 0.1 ± 0.48 |
| NLKADRFDHGSPEVVSLSFI | -0.027 ± 0.98 |
| VYCSLPRFRHLTSSILVTII | -0.07 ± 1.4 |
| LLRNGFHSVLI | 0.488 ± 0.25 |
| WNSRTSESC | 2.97 ± 0.15 |
| NRRVPLIHCYLMCGYTGTCW | 0.249 ± 0.4 |
| ALSLVISCSGSWRKGRRFLS | -0.53 ± 0.64 |
| KNDDTRFR | 0.358 ± 0.31 |
| DAVSGGVFNCVLFNKVLSLM | -0.597 ± 0.32 |
| FSADVIFPCISSTLQKPPWW | -0.081 ± 0.54 |
| RKNSNDEASS | -0.339 ± 0.31 |
| VYCCLNFLAFNFSWV | 6.308 ± 0.063 |
| YAFGHFCTDADSFCGRCVIL | 0.09 ± 0.76 |

| Substance | amyloid nucleation score |
| --- | --- |
| RLLRYMRDIR | -0.814 ± 0.57 |
| FYVRCREMSRGVWWSTSVR | -0.188 ± 0.34 |
| LAVTFQGIGFSYSILHITTY | -0.164 ± 0.44 |
| LPGYVGQ | 0.472 ± 0.78 |
| DAGMH | 0.189 ± 0.3 |
| VHWRYWFVLISLDQRIGKA | 0.199 ± 0.21 |
| ISLKG | 0.655 ± 0.59 |
| MRGERVYSLRNNSHQ | -0.078 ± 0.33 |
| ISLIFHVMNDLWCIAIELGS | 0.183 ± 0.59 |
| PYRFSYKVVESSICDNLRRR | -0.094 ± 0.35 |
| LDHGEFTKYFRLTRCVSTCC | -0.339 ± 0.97 |
| IVVKV | -0.035 ± 0.97 |
| ETNLFVLNVNNVLVVFWCPP | 6.938 ± 0.046 |
| IAYVQFAPRKY | 0.776 ± 0.36 |
| LVLVWVAIHFDRLRIHRFFI | inactive |
| SYQCGENYMFAYVNWSVGGN | 0.548 ± 0.84 |
| MNIVSTRS | 0.231 ± 0.22 |
| HMLWSFLLITWYGMICRKGG | -0.15 ± 0.39 |
| RWLHVIKL | 2.21 ± 0.35 |
| TFVCAFRGY | 2.19 ± 0.098 |
| RIRIVNITGAESPMLCLNHE | 4.42 ± 0.12 |
| TYHFCLFMSYSGSNRAALCN | -0.212 ± 1 |
| APGWTVDTSPYSAGVCVVTP | 0.099 ± 0.4 |
| SVRFSIETISWRGAYNRGTR | 1.98 ± 0.22 |
| TVNTYSANDYVRTMVCELSV | inactive |

| Substance | amyloid nucleation score |
| --- | --- |
| ERHMYMSCWFTNY | 0.777 ± 0.21 |
| GGYVIF | 0.212 ± 0.56 |
| SDAITRVIRHMNPFCLTALL | -0.928 ± 0.95 |
| IIFELKGLPLKNGMRGLKPL | -0.579 ± 0.34 |
| WLNSEAWDYLATLGLSFNYS | 0.761 ± 0.75 |
| RGSQGLVNLYIAFPMECLGI | 3.73 ± 0.087 |
| MLRSNVLYLIHRALCLWCVT | 2.42 ± 0.17 |
| CSCYAM | 3.25 ± 0.19 |
| NDRFFGSKYCGVIVLSISDL | 5.95 ± 0.061 |
| HCVLRFCNPG | inactive |
| LNQPWYIRIQANIDFNR | 4.47 ± 0.079 |
| YADWLEDCETVP | -0.309 ± 0.45 |
| LCTLTVNYRSEHSYFYCINF | -0.319 ± 0.41 |
| RVGDYGKHRW | 1.31 ± 0.14 |
| WCQKYNFRCSVLDLTFSLLW | 6.71 ± 0.069 |
| AGNFVVPMDAE | 1.62 ± 0.41 |
| SNWLM | 2.06 ± 0.53 |
| RIKNGLPKGFFGKSLSPMRW | -0.161 ± 0.8 |
| VSVFCTSFWASTKLYWTVSE | -0.351 ± 0.6 |
| NDIYLDGNVFKF | -0.477 ± 0.37 |
| SFYQAYYVACCKYNVEY | 5.96 ± 0.063 |
| ARVPSKYRVEVHGRKKAWRG | -0.814 ± 0.6 |
| WNYSHEV | inactive |
| KAFIQTVLRNQVSWLANTPH | -0.745 ± 0.98 |
| WCLWCVQVRFFFNVLFFK | 0.95 ± 0.44 |

| Substance | amyloid nucleation score |
| --- | --- |
| GGQITYPMDLKVGRLCEDAL | inactive |
| SVTALKLDSSLQKSRDLVGG | -0.233 ± 1.1 |
| IWCSCAYRGVGMSTGFAIIY | 1.13 ± 0.58 |
| RPWAWPRCRSCAST | 0.689 ± 0.37 |
| FLSTCGCFRKLGWVMCECLG | -0.19 ± 0.47 |
| WRFMRFSSGRFNIGEYI | -0.431 ± 1.4 |
| VGSSNTTNKYPGFCCWRFDG | 0.444 ± 0.53 |
| KYYMHLSSRDRRGAAWHLLF | -0.075 ± 0.29 |
| PTMSLIDGIVGKLMDSRVGT | -0.11 ± 0.32 |
| RLWGYCMHSLVFDTNIWHPL | 0.461 ± 0.32 |
| LMYWLLLMEIRYNLKPLNRL | 2.29 ± 0.084 |
| HMRDLEDPQWSDY | -0.711 ± 0.32 |
| KKFFRVLLSLSSMLVLCCFQ | -0.317 ± 1.4 |
| VDNDLGQLPGMW | -0.561 ± 1.7 |
| QNPNVDERNSTS | 0.69 ± 0.52 |
| RCLMPYNYE | 0.952 ± 0.49 |
| RWSPV | 1.47 ± 0.54 |
| NYLGS | -0.481 ± 0.33 |
| GPIRDKSELAYMLPFEVMYT | 0.565 ± 0.67 |
| YINYHCFMIRFQFILVYRYQ | inactive |
| VPGLRI | 0.584 ± 0.54 |
| TTKAVRCYRNIMCSTILGRS | -0.015 ± 0.31 |
| GCILHFHSGRGYIGSRMVGW | 1.31 ± 0.32 |
| CSYDNVPDLFC | 0.582 ± 0.68 |
| LMSEVRPAMLDSSVLRDCYD | inactive |

| Substance | amyloid nucleation score |
| --- | --- |
| TWNVMYRIRF | 2.04 ± 0.23 |
| DYSLKCLTPVVSDRAWCRLN | 0.398 ± 0.83 |
| WSKCVCHLPR | -0.897 ± 1.6 |
| NHIQRVSTFVLAMSYYVRTV | -0.236 ± 1.2 |
| EQQLQRM | inactive |
| ALQTPFSKNMEYCCNQ | 0.222 ± 0.41 |
| HYKDSITVFFIFHIPIQMMM | 4.25 ± 0.057 |
| GHYRFVSFRFSWAEGAQLRG | 1.68 ± 0.25 |
| WNYPYIFVGGPKKIGGGRRG | 0.584 ± 0.58 |
| TPDHLWLWLFYLNCNTENYG | 7.757 ± 0.046 |
| RGFADLCAFEDMCIRFDESL | 0.878 ± 0.64 |
| HLPGFNIVSYVQSESIMF | -0.08 ± 0.2 |
| SYLTWDHLEVNLCTYSILGR | 0.45 ± 0.52 |
| ETRYPPRVNSVYTVWPMYLL | 0.464 ± 0.43 |
| NSSKAMKKQVHLLFFRK | 0.699 ± 0.42 |
| LMTRSVIVIRLMEEKSAA | 0.163 ± 1.4 |
| GGSRTIVP | 0.411 ± 0.48 |
| VLHFHVDDMDYNFFSW | 0.578 ± 0.33 |
| LYGSVKNIKRLPHCFMLCLC | 0.616 ± 0.36 |
| MFLIGFDGTYERSSLF | -0.106 ± 1.7 |
| FNDQVQTWWLSYFEAPRYFK | -1.29 ± 2.4 |
| VLQRVQKPLLCMRVLDIYAW | -0.11 ± 0.43 |
| YYLQLIYMHKNRMLISCVCC | inactive |
| RRNVWASVTGGELWKGDLSR | -0.498 ± 1.1 |
| KCFAFRSLAHIASTCGWCLN | 2.4 ± 0.31 |

| Substance | amyloid nucleation score |
| --- | --- |
| YNKGIRRSDQGLKWTFLWPE | -0.712 ± 0.53 |
| GAYYGRSSKELGNNEGTGTG | 0.51 ± 0.52 |
| GCKSGDGQRVGVLLNQNCTR | 0.863 ± 0.56 |
| RTLHRLLSSINAKGDRYRLR | -0.935 ± 1.9 |
| VIAFCSRPDC | 0.425 ± 0.52 |
| WPTLIINDAFILRRRNMDSE | -0.223 ± 0.32 |
| QHIPGDCFYHCCQFHCAQKE | 0.818 ± 0.77 |
| TYNYFCGLVIVVVNGVHLRV | 5.507 ± 0.047 |
| GACYNSGCCFNPLDWYK | 0.904 ± 0.57 |
| RFCRSIAFA | 0.237 ± 0.32 |
| TWNTL | -0.343 ± 0.4 |
| YARSSFEDIVVFRDRFG | 5.47 ± 0.092 |
| KEWFYYLVDELCGGLCNPVR | 0.39 ± 1.2 |
| RCSTPRCSPL | -0.237 ± 0.62 |
| FFNYRVMKRHYSVYLCVGSM | 1.18 ± 0.14 |
| IPDNVVF | -1.27 ± 1.4 |
| GSWYHDRVSLCFFIFDCG | 4.82 ± 0.076 |
| GQGALRVDCLVHRQVVSVVL | 0.176 ± 0.62 |
| DAILLHYSNDMLYSYYRRVG | -0.937 ± 0.65 |
| LMGDLYGSLRMCLVGSRWLL | 0.082 ± 1.2 |
| LCLRLCPLMVWSCVLERWVS | -1.78 ± 2.7 |
| SYEMWLEHYMRRQQRRP | -0.282 ± 1.7 |
| FQSECSCIPKAWSVFMGTAG | -0.476 ± 0.58 |
| CMILFTNRQRVMRLVLCLSD | 0.044 ± 0.49 |
| SQSIAVCMVKCNCDCVHIGE | 6.126 ± 0.05 |

| Substance | amyloid nucleation score |
| --- | --- |
| TISCSSYDMWWCFTEAKSTM | inactive |
| IACSARMFYDS | 0.399 ± 0.47 |
| MAWDLT | 1.52 ± 0.22 |
| MSNFLTELGNNSTHREDGER | 0.501 ± 0.78 |
| MWSLDGTKICNLRKVFGRSC | 0.809 ± 0.37 |
| KRSANVYRLRCLGGKMLHVN | 3.34 ± 0.081 |
| TNHDMAINLVQQLDC | 1.67 ± 0.61 |
| SSNYMFVCRSKDLEVLLVGY | 0.398 ± 0.51 |
| SHASSSSSGCAYQSLVIWIN | 4.45 ± 0.081 |
| QVVRIYQVQGLWIMVHR | 1.96 ± 0.28 |
| QGSSSGITQFGMPTYLGIIC | 0.61 ± 0.47 |
| IVLGYFRGIHFLGVLGMLIK | inactive |
| LSWVVVVSNKYGQTMTCVVI | -0.326 ± 0.5 |
| TWCTV | 0.082 ± 0.28 |
| FQCDVIYA | -0.72 ± 0.52 |
| GLYPKYNVGLNN | -0.376 ± 0.56 |
| ANLKISSALDVVRHRRKYQY | 0.014 ± 0.54 |
| KTGPAA | -0.17 ± 0.73 |
| DFILLVVLYFVLYFFTCMVL | 0.22 ± 0.72 |
| GTLPLKDKGPYRDL | -1.08 ± 1.4 |
| LSWFMGLSYIKILYYCHIYD | -0.142 ± 1.1 |
| SGKSNSKPALEYYVSFFIDL | -0.52 ± 0.55 |
| LQAKMTIGAFFISYSSMYPG | 2.74 ± 0.08 |
